Reference: PMC9084902, “Low-Molecular Weight Protamine Overcomes Chondroitin Sulfate Inhibition of Neural Regeneration” (Frontiers in Cell and Developmental Biology, 2022)
Ends that are not written are not given here.

Assays:
hippocampal neurons [1] = assay: neurite outgrowth on precoated plastic without aggrecan, hippocampal neurons; type: cell-based, Wistar rat; conditions: precoated 10 μg/ml on plastic, no aggrecan, 2 days; about 70 neurons/replicate; p < 0.0001, n = 7
Method: The cortex or hippocampus were obtained from 17 days-old Wistar rat embryos and transferred to ice-cold preparation solution. Neurons were further isolated exactly as described earlier in Sahu’s publication ([Sahu et al., 2019]). Primary rat cortical or hippocampal neurons (E17 Wistar rats) were cultured in 96-well plates at the density of 20000 cells/well in Neurobasal medium supplemented with B27 serum substitute, penicillin, streptomycin and L-glutamate for 2 days in vitro (DIV). The plates were precoated with aggrecan (5 ug/ml, 150 µl/well). Protamine or protamine peptides were added to the culture medium at different concentrations. To analyze the effect of protamine or its fragment on neurite outgrowth, the plates were coated with 10 μg/ml of protamine or LMWP. For the experiment with chondroitinase, the aggrecan-coated plates were treated with chondroitinase ABC (Amsbio AMS. E1028, lot CF0029) for 4 h followed by 2 times washing with PBS before cell plating, and the cell culture imaging was carried out after 3 DIV incubation with 4 uM LMWP added to the medium. Neurite outgrowth was imaged with phase contrast microscopy (Olympus IX70 microscope and Retiga 2000R digital camera) using both x10 and x20 objectives. […] Neurite length was measured with ImageJ software and averaged from 2 to 3 independent experiments with 1–2 technical replicas in each independent experiment.

[2] = attenuated total reflectance Fourier transform infrared spectroscopy; ref Umerska et al., 2015; cited from earlier work
Excerpt: Chondroitin sulfates (CS) bare multiple negative charges due to sulfate and carboxyl groups while protamine is a polycation at physiological pH values. […] As an FDA-approved drug for human use as anti-heparin, protamine might in addition have potential to overcome the regeneration inhibiting effe ...

[3] = test system: PTPRZ (protein tyrosine phosphatase receptor type Z); conditions: ref Kuboyama et al., 2017; cited from earlier work
Excerpt: In the case of HB-GAM we have identified glypican-1 as a neuron surface receptor using unbiased mass spectrometry search of neuron binding sites for the substrate-attached HB-GAM ([Paveliev et al., 2016]). […] Interaction of glypican-1 with LMWP also appears likely since LMWP binds to heparin/heparan sulfate chains. Another possible cell surface receptor of LMWP is the transmembrane receptor PTPRZ (protein tyrosine ph ...

[4] = ref Kaneda et al., 2005; Bromfield et al., 2013; cited from earlier work
Excerpt: Protamine is a small 33 amino acid long protein that takes part in DNA packing during spermatogenesis ([Kasinsky et al., 2011]). Over 60% of the salmon protamine sequence is comprised of arginines so that it interacts strongly with negatively charged DNA phosphates in vivo and potentially with any other negatively charged molecules. […] Protamine sulfate is therefore widely used as a drug in cardiopulmonary bypass surgery to stop the effect of heparin ([Kaneda et al., 2005]; [Bromfield et al. ... || The CS chains even enhance the neurite outgrowth-promoting effect of HB-GAM, and we have ended up in a model according to which the CS chains of the CSPGs display a positive role by concentrating HB-GAM on the matrix and presenting it to neuron surface receptors. According to our model, two polycationic regions separated by a linker are essential to reverse the CS inhibition of neurite outgrowth ([Paveliev et al., 2016]; [Rauvala et al., 2017]). To test our hypothesis we decided to search for peptide structures that are similar to HB-GAM and display similar binding properties. Protamine displa ...

brain cortex tissue = assay: in vivo TUNEL apoptosis assay after cortical injection; conditions: 1.5 μl cortical injection, 0.1 or 1 mg/ml, 3 days
Method: For TUNEL apoptosis assay, 1.5 μl of protamine (0.1 mg/ml or 1 mg/ml) or LMWP (0.1 mg/ml or 1 mg/ml) was bilaterally injected to the adult C57Bl6 mouse (n = 10 total) into motor (ML: 1.5; AP: 2) and somatosensory (ML: 1.5; AP: −1.8) cerebral cortex 500–700 micrometers below the brain surface (4 injection sites per concentration of injected protamine and 6 injections per concentration of injected LMWP). After 3 days the animals were anesthetized with pentobarbital sodium and perfused with PBS and then 4%PFA. After paraffine embedding the brains were cut into 7 µm coronal sections. Staining was performed according to the protocol recommended by the commercial TUNEL assay kit (Dead End Fluorometric TUNEL System, Promega). Sections treated with DNase I were used as positive controls. Vectoshield medium with DAPI (Vector Laboratories) was used to visualize nuclei. Images were collected with Axio Imager M.1 fluorescent microscope (Zeiss), AxioCam HR3 digital camera and x10 0.45 NA objective (Carl Zeiss Microscopy) and analyzed with automatic cell counting using FIJI software (Image J, open-source). The fractions of TUNEL positive cells were calculated and averaged over 5 sections per mouse per injection place.

hippocampal neurons [5] = assay: cell toxicity seen in neuronal morphology / neuronal cells in vitro; type: cell-based, Wistar rat
Method: (§1) The cortex or hippocampus were obtained from 17 days-old Wistar rat embryos and transferred to ice-cold preparation solution. Neurons were further isolated exactly as described earlier in Sahu’s publication ([Sahu et al., 2019]). Primary rat cortical or hippocampal neurons (E17 Wistar rats) were cultured in 96-well plates at the density of 20000 cells/well in Neurobasal medium supplemented with B27 serum substitute, penicillin, streptomycin and L-glutamate for 2 days in vitro (DIV). The plates were precoated with aggrecan (5 ug/ml, 150 µl/well). Protamine or protamine peptides were added to the culture medium at different concentrations. To analyze the effect of protamine or its fragment on neurite outgrowth, the plates were coated with 10 μg/ml of protamine or LMWP. For the experiment with chondroitinase, the aggrecan-coated plates were treated with chondroitinase ABC (Amsbio AMS. E1028, lot CF0029) for 4 h followed by 2 times washing with PBS before cell plating, and the cell culture imaging was carried out after 3 DIV incubation with 4 uM LMWP added to the medium. Neurite outgrowth was imaged with phase contrast microscopy (Olympus IX70 microscope and Retiga 2000R digital camera) using both x10 and x20 objectives. Processes of neurons over the diameter of the neuronal soma were interpreted as neurites. Neurite length was measured with ImageJ software and averaged from 2 to 3 independent experiments with 1–2 technical replicas in each independent experiment.

hippocampal neurons [6] = assay: neurite outgrowth on aggrecan substrate, hippocampal neurons; type: cell-based, Wistar rat; conditions: hippocampal neurons (E17 rat), 2 days on aggrecan; 10 μg/ml, precoated with aggrecan or soluble in medium; about 70 neurons/replicate, normalized to control; n = 3; Figure 2L
Method: as §1

[7] = test system: oligodendrocyte differentiation; conditions: ref Kuboyama et al., 2017; cited from earlier work
Excerpt: The CS chains even enhance the neurite outgrowth-promoting effect of HB-GAM, and we have ended up in a model according to which the CS chains of the CSPGs display a positive role by concentrating HB-GAM on the matrix and presenting it to neuron surface receptors. According to our model, two polycationic regions separated by a linker are essential to reverse the CS inhibition of neurite outgrowth ([Paveliev et al., 2016]; [Rauvala et al., 2017]). To test our hypothesis we decided to search for peptide structures that are similar to HB-GAM and display similar binding properties. Protamine displa ...

cervical spinal cord = assay: distribution of fluorescent LMWP to spinal cord after subcutaneous administration; type: in vivo, mouse; conditions: 2 h, confocal
Method: The TAMRA-labelled LMWP was obtained from commercial provider Caslo ApS (DK-2800, Kongens Lyngby, Denmark). Sixteen micrograms of TAMRA-LMWPor unconjugated TAMRA (in 200 ul of 0.9% NaCl) was injected subcutaneously to upper back area to healthy adult mice (n = 2–3 animals/group). At the end of the experiment (2 h after injection), the animals were perfused with PBS and then with 4% paraformaldehyde (PFA) in PBS. The spinal cord was dissected and further fixed in PFA overnight. One hundred µm-thick longitudinal sections of the cervical spinal cord were cut with vibratome and imaged with Zeiss LSM880 confocal, 20x objective.

[8] = solid phase binding of mutated PTPσ ectodomain to aggrecan; conditions: 80 nM, 10 μg/ml aggrecan coating, overnight 4°C, HRP anti-Fc/OPD 492 nm
Excerpt: The N-terminal extracellular part of PTPσ (protein tyrosine phosphatase sigma; PTPRS) that contains the three Ig domains (amino acids 1-321) and mediates CSPG binding ([Shen et al., 2009]) was cloned using the PTPσ cDNA kindly provided by Dr. John Flanagan (Harvard University). The PTPσ mutant lacking the CS binding site in the Ig1 domain was produced as described ([Shen et al., 2009]). The recombinants were produced as Fc-tagged proteins in 293T HEK cells and purified on protein A Sepharose.
The competition assay for LMWP in binding of PTPσ to aggrecan was done in a similar way as earlier ([Paveliev et al., 2016]). Briefly, after overnight coating with 10 μg/ml aggrecan (150 ul/well) at 4°C 96-well tissue culture plates (Nunc) were washed two times with 0.05% Tween-20 in PBS and were blocked for 1 h at room temperature with 1%BSA and 0.05% Tween-20 in PBS. The recombinant wild type PTPσ ectodomain or the mutated ectodomain lacking CS binding (80 nM) were mixed with different concentrations of LMWP in 1% BSA and 0.05% Tween-20 in PBS, and were incubated in the plates overnight at 4°C. After washing with 0.05% Tween20 (3 times, room temperature), the wells were incubated for 1 h (room temperature) with HRP conjugated goat anti-human FC part of IgG (1:5000, in 1% BSA and 0.05% Tween20 PBS) to detect the bound PTPσ. […]

protamine
total neurite length versus uncoated control (hippocampal neurons [1]): increased the total neurite length as compared to the parallel control cultures | polyion complexation with CS [2]: Polyion complexation of CS with protamine was demonstrated | binding to PTPRZ [3]: known to bind protamine | affinity for heparin [4]: binds the glycosaminoglycan heparin with high affinity | apoptotic cells in brain cortex (TUNEL staining) (brain cortex tissue): high amount of apoptotic cells in brain cortex tissue | signs of cell toxicity in neuronal morphology (hippocampal neurons [5]; hippocampal neurons, 2 days on aggrecan, 10 μg/ml, black arrows point to dead cells, Figure 2E,G): Signs of cell toxicity were observed in neuronal morphology | toxicity for neuronal cells (summary) (hippocampal neurons [5]; neuronal systems, Figures 2, 4): toxic for neuronal cells | reversal of the inhibitory effect of aggrecan on neurite outgrowth (comparison among fragments) (hippocampal neurons [6]): lower efficacy in the neurite outgrowth assay | effect on CSPG-mediated inhibition of oligodendrocyte differentiation [7]: neutralizes the CSPG-mediated inhibition of oligodendrocyte differentiation

TAMRA-LMWP: fluorescent TAMRA-labelled LMWP (Caslo ApS) (VSRRRRRRGGRRRR; also: TAMRA label, site not given here)
fluorescent signal in spinal cord parenchyma (cervical spinal cord; 16 µg s.c. in 200 µl 0.9% NaCl, compared to TAMRA or noninjected animals, n = 2–3): clear fluorescent signal in the spinal cord parenchyma | parenchymal accumulation in spinal cord (cervical spinal cord; 16 µg s.c., cervical region): Parenchymal accumulation | perivascular accumulation in spinal cord (cervical spinal cord; 16 µg s.c., cervical region): Perivascular accumulation

B1: recombinant ectodomain of PTPσ mutated in a critical lysine residue: PTPσ mutant lacking the CS binding site in the Ig1 domain, Fc-tagged, produced in 293T HEK cells (protein, UniProt Q13332 30-1282, looked up)
extracellular domain: EEPPRFIKEPKDQIGVSGGVASFVCQATGDPKPRVTWNKKGKKVNSQRFETIEFDESAGAVLRIQPLRTPRDENVYECVAQNSVGEITVHAKLTVLREDQLPSGFPNIDMGPQLKVVERTRTATMLCAASGNPDPEITWFKDFLPVDPSASNGRIKQLRSETFESTPIRGALQIESSEETDQGKYECVATNSAGVRYSSPANLYVRELREVRRVAPRFSILPMSHEIMPGGNVNITCVAVGSPMPYVKWMQGAEDLTPEDDMPVGRNVLELTDVKDSANYTCVAMSSLGVIEAVAQITVKSLPKAPGTPMVTENTATSITITWDSGNPDPVSYYVIEYKSKSQDGPYQIKEDITTTRYSIGGLSPNSEYEIWVSAVNSIGQGPPSESVVTRTGEQAPASAPRNVQARMLSATTMIVQWEEPVEPNGLIRGYRVYYTMEPEHPVGNWQKHNVDDSLLTTVGSLLEDETYTVRVLAFTSVGDGPLSDPIQVKTQQGVPGQPMNLRAEARSETSITLSWSPPRQESIIKYELLFREGDHGREVGRTFDPTTSYVVEDLKPNTEYAFRLAARSPQGLGAFTPVVRQRTLQSKPSAPPQDVKCVSVRSTAILVSWRPPPPETHNGALVGYSVRYRPLGSEDPEPKEVNGIPPTTTQILLEALEKWTQYRITTVAHTEVGPGPESSPVVVRTDEDVPSAPPRKVEAEALNATAIRVLWRSPAPGRQHGQIRGYQVHYVRMEGAEARGPPRIKDVMLADAQWETDDTAEYEMVITNLQPETAYSITVAAYTMKGDGARSKPKVVVTKGAVLGRPTLSVQQTPEGSLLARWEPPAGTAEDQVLGYRLQFGREDSTPLATLEFPPSEDRYTASGVHKGATYVFRLAARSRGGLGEEAAEVLSIPEDTPRGHPQILEAAGNASAGTVLLRWLPPVPAERNGAIVKYTVAVREAGALGPARETELPAAAEPGAENALTLQGLKPDTAYDLQVRAHTRRGPGPFSPPVRYRTFLRDQVSPKNFKVKMIMKTSVLLSWEFPDNYNSPTPYKIQYNGLTLDVDGRTTKKLITHLKPHTFYNFVLTNRGSSLGGLQQTVTAWTAFNLLNGKPSVAPKPDADGFIMVYLPDGQSPVPVQSYFIVMVPLRKSRGGQFLTPLGSPEDMDLEELIQDISRLQRRSLRHSRQLEVPRPYIAARFSVLPPTFHPGDQKQYGGFDNRGLEPGHRYVLFVLAVLQKSEPTFAASPFSDPFQLDNPDPQPIVDGEEG
modifications: extracellular domain lysine mutation in Ig1 (position not given); Fc tag
binding to CS chains of aggrecan [8]: lacks the ability to bind to CS chains of the aggrecan substrate
